The values that follow are results of earlier work, collected in PMC12493192.

One may read the Kd as the free concentration of one partner at which half of the binding sites on the other are occupied at equilibrium, for simple one-to-one binding.

Read-outs that look alike come from different tables or passages of the source.

Data set [1] addresses GC-C (Homo sapiens) (UniProt P25092).
Data set [2] shares this target. This is another data set of the same source.

Sequence of UniProt P25092 (P25092 24-430): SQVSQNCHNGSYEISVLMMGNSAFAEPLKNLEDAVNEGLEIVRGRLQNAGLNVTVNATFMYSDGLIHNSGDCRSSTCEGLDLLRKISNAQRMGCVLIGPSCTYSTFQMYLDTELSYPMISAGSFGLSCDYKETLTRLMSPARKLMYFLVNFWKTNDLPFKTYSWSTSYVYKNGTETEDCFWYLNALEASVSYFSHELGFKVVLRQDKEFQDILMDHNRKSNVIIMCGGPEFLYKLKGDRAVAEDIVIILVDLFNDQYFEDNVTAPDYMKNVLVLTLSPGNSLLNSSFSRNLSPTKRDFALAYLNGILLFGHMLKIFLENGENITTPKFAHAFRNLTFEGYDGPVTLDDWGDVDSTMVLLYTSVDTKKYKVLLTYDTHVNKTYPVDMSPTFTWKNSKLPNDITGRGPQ

Regarding guanylin (from UniProt Q02747), the dissociation constant (Kd) in data set [1] was 10 nM.

Turning to uroguanylin (from UniProt Q16661), the Kd in data set [2] is 1 nM.
